pKd: −log10 of the molar value.
What was measured:
Cdh23 EC1-2 (WT) (mouse) [1] = biological target: Cdh23 EC1-2 (WT) (mouse) (UniProt Q99PF4); assay: single-molecule force spectroscopy (AFM); protein anchored by its C terminus to cantilever and to coverslip (sortagging, PEG 5 kDa spacers); seven loading rates, contact time 500 ms; Bell-Evans fit
Cdh23 EC1-2 (WT) (mouse) [2] = biological target: Cdh23 EC1-2 (WT) (mouse) (UniProt Q99PF4); assay: SEC; analytical SEC, Superdex 200 increase 10/300, 100 μM injected, 25 mM HEPES, 25 mM KCl, 50 mM NaCl, 2 mM CaCl2, pH 7.5; 4 °C
Cdh23 EC1-2 (WT) (mouse) [3] = biological target: Cdh23 EC1-2 (WT) (mouse) (UniProt Q99PF4); assay: AUC; sedimentation velocity, 142 000 g, 20 °C, pH 7.6, 25 mM HEPES, 50 mM NaCl, 25 mM KCl, 2 mM CaCl2; EC1-2 WT at 36 μM, EC1-2 E78K at 30 μM or ~440 μM, EC1 at 45 μM
Cdh23 EC1-2 (WT) (mouse) [4] = biological target: Cdh23 EC1-2 (WT) (mouse) (UniProt Q99PF4); assay: AUC; sedimentation equilibrium at three rotor speeds, 20 °C, pH 7.6, 25 mM HEPES, 50 mM NaCl, 25 mM KCl, 2 mM CaCl2; global fit to monomer-dimer equilibrium (SEDPHAT); dimer to monomers
Cdh23 EC1-2 (WT) (mouse) [5] = biological target: Cdh23 EC1-2 (WT) (mouse) (UniProt Q99PF4); assay: SAXS; proteins at 10 mg·mL^-1 in solution, SAXSpace instrument; 10 °C (methods)
Cdh23 EC1 (WT) (mouse) [6] = biological target: Cdh23 EC1 (WT) (mouse) (UniProt Q99PF4); assay: single-molecule force spectroscopy (AFM); protein anchored by its C terminus to cantilever and to coverslip (sortagging, PEG 5 kDa spacers); seven loading rates, contact time 500 ms; Bell-Evans fit
Cdh23 EC1 (WT) (mouse) [7] = biological target: Cdh23 EC1 (WT) (mouse) (UniProt Q99PF4); assay: AUC; sedimentation velocity, 142 000 g, 20 °C, pH 7.6, 25 mM HEPES, 50 mM NaCl, 25 mM KCl, 2 mM CaCl2; EC1-2 WT at 36 μM, EC1-2 E78K at 30 μM or ~440 μM, EC1 at 45 μM
Cdh23 EC1 (WT) (mouse) [8] = biological target: Cdh23 EC1 (WT) (mouse) (UniProt Q99PF4); assay: AUC; sedimentation equilibrium at three rotor speeds, 20 °C, pH 7.6, 25 mM HEPES, 50 mM NaCl, 25 mM KCl, 2 mM CaCl2; global fit to monomer-dimer equilibrium (SEDPHAT); dimer to monomers
Cdh23 EC1-3 (mouse) = assay: SEC; analytical SEC, Superdex 200 increase 10/300, 100 μM injected, 25 mM HEPES, 25 mM KCl, 50 mM NaCl, 2 mM CaCl2, pH 7.5; 4 °C

Cdh23 EC1-2 (WT) (from UniProt Q99PF4 24-228) (domain or fragment)
intrinsic lifetime at zero force (τ0), high-force distribution (Cdh23 EC1-2 (WT) (mouse) [1]): 1220 s
intrinsic lifetime at zero force (τ0), low-force distribution (Cdh23 EC1-2 (WT) (mouse) [1]): 1.86 s
probability of events (Cdh23 EC1-2 (WT) (mouse) [1]): 6%
stoichiometry N (Cdh23 EC1-2 (WT) (mouse) [2]): 2
stoichiometry N (Cdh23 EC1-2 (WT) (mouse) [3]): 2
pKd (Cdh23 EC1-2 (WT) (mouse) [4]): 4.74
stoichiometry N (Cdh23 EC1-2 (WT) (mouse) [5]): 2

Cdh23 EC1 (WT) (from UniProt Q99PF4 24-124) (domain or fragment)
probability of events (Cdh23 EC1 (WT) (mouse) [6]): 10%
stoichiometry N (Cdh23 EC1 (WT) (mouse) [7]): 2
pKd (Cdh23 EC1 (WT) (mouse) [8]): 4.28

Cdh23 EC1-3 (domain or fragment)
stoichiometry N (Cdh23 EC1-3 (mouse)): 2

Source: paper PMC7317872
